This passage reports Kd and IC50 results from the Immune Epitope Database (IEDB).

The Kd is the free concentration of one partner at which half of the binding sites on the other are occupied at equilibrium, for simple one-to-one binding. In general, IC50 refers to the midpoint of a concentration-inhibition curve. A higher IC50 goes with weaker potency.

For assay [1], the target named is HLA-A*02:01. The assay is described as follows: IEDB peptide-MHC binding, purified MHC/direct/fluorescence; filed as Kd, often an IC50 or EC50 that approximates it; ≥ and ≤ were set here for values at or beyond the usual limits of such assays.
The target in assay [2] is HLA-A*69:01. The description is as above.
Assay [3] addresses HLA-A*01:01. Nature of the assay: IEDB peptide-MHC binding, purified MHC/competitive/radioactivity; filed as Kd, often an IC50 or EC50 that approximates it; ≥ and ≤ were set here for values at or beyond the usual limits of such assays. As to conditions: source organism: Dengue virus 3 Martinique/1243/1999.
The target in assay [4] is HLA-A*26:01. The description is as above.
Assay [5] deals with HLA-A*02:01. The assay is described as follows: IEDB peptide-MHC binding, purified MHC/competitive/fluorescence; ≥ and ≤ were set here for values at or beyond the usual limits of such assays.
Assay [6] addresses HLA-B*44:02. The assay is described as follows: IEDB peptide-MHC binding, purified MHC/competitive/radioactivity; filed as Kd, often an IC50 or EC50 that approximates it; ≥ and ≤ were set here for values at or beyond the usual limits of such assays.
For assay [7], the target named is HLA-B*44:03. The description is as above.
Assay [8] has as its target HLA-B*27:05. The assay is described as follows: IEDB peptide-MHC binding, purified MHC/direct/fluorescence; filed as Kd, often an IC50 or EC50 that approximates it; ≥ and ≤ were set here for values at or beyond the usual limits of such assays. To be noted: source organism: Mycobacterium tuberculosis.
The target of assay [9] is HLA-A*02:01. Nature of the assay: IEDB peptide-MHC binding, purified MHC/competitive/fluorescence; filed as Kd, often an IC50 or EC50 that approximates it; ≥ and ≤ were set here for values at or beyond the usual limits of such assays.
Assay [10] addresses HLA-A*03:01. The assay is described as follows: IEDB peptide-MHC binding, purified MHC/direct/fluorescence; filed as Kd, often an IC50 or EC50 that approximates it; ≥ and ≤ were set here for values at or beyond the usual limits of such assays.
The target in assay [11] is HLA-B*15:01. Described as above.
For assay [12], the target named is HLA-B*07:02. Described as above.
Assay [13] concerns the target HLA-A*31:01. Described as above. To be noted: source organism: SARS-CoV1.
Assay [14] has as its target HLA-A*33:01. The assay is described as follows: IEDB peptide-MHC binding, purified MHC/competitive/radioactivity; filed as Kd, often an IC50 or EC50 that approximates it; ≥ and ≤ were set here for values at or beyond the usual limits of such assays. As to conditions: source organism: SARS coronavirus Tor2.
The target in assay [15] is HLA-A*68:01. Described as above. To be noted: source organism: SARS coronavirus Tor2.
Assay [16] has as its target HLA-B*40:01. Nature of the assay: IEDB peptide-MHC binding, purified MHC/direct/fluorescence; filed as Kd, often an IC50 or EC50 that approximates it; ≥ and ≤ were set here for values at or beyond the usual limits of such assays. As to conditions: source organism: Rickettsia prowazekii.
The target in assay [17] is HLA-B*58:01. The description is as above. As to conditions: source organism: Rickettsia prowazekii.
For assay [18], the target named is HLA-A*01:01. The assay is described as above. To be noted: source organism: Mammarenavirus lassaense.
The mark [19] stands for this setting: source organism: Bacillus thuringiensis.
[20] abbreviates: source organism: Dengue virus 4 Philippines/H241/1956.
The mark [21] stands for this setting: source organism: Zaire ebolavirus.
Where [22] appears, read: source organism: Dengue virus 2 Jamaica/1409/1983.
The mark [23] stands for this setting: source organism: Oligoflexia bacterium.
Where [24] appears, read: source organism: Sudan ebolavirus.
Setting [25] is: source organism: Dengue virus 1 Brazil/97-11/1997.
The mark [26] stands for this setting: source organism: Mycobacterium tuberculosis str. Haarlem.
The mark [27] stands for this setting: source organism: Vaccinia virus Copenhagen.
Setting [28] is: source organism: Orthohantavirus hantanense.
Where [29] appears, read: source organism: Cryptosporidium hominis.
[30] abbreviates: source organism: Salmonella enterica subsp. enterica serovar Typhimurium.

On to ELGGGFGTL, for which the Kd was found to be 7 µM in assay [1] (setting [19]) and 0.679 µM in assay [2] (setting [19]). On to LTDGPERVIL, for which the Kd in assay [3] amounted to 11.8 µM.

With DVRNDMISY, in assay [4] (setting [20]), the Kd amounted to 0.431 µM.

Sequence TTLATISTS registered an IC50 in assay [5] (setting [21]) of 6.62 µM. Regarding ETLGEKWKNR, in [4] (source organism: Dengue virus 2 Peru/IQT2913/1996), the dissociation constant Kd was 14.6 µM.

SRNSTHEMYW: the equilibrium dissociation constant (Kd) in assay [6] (setting [22]) stood at 6.36 µM; in assay [7] (setting [22]) it was 1.37 µM.

Take LLPGVAHSI: the dissociation constant (Kd) in assay [1] (source organism: Amur virus) was 0.0042 µM; in [2] (source organism: Amur virus), at least 20 µM. As for EYSGGLHGV, the Kd was 18 µM in [1] (setting [23]) and 0.46 µM in assay [2] (setting [23]). LILAKPKET returned an IC50 in assay [5] (setting [24]) of 10.8 µM. With WVIILFQKA, the IC50 in assay [5] (setting [24]) is at least 341 µM. With SAVNMTSRM, in [4] (setting [25]), the Kd was 1.22 µM.

For FRWDYIPPT, in assay [8], the dissociation constant Kd amounted to 0.333 µM. As for ETLGEKWKSR, in assay [4] (setting [22]), the Kd is 14.3 µM. Turning to SLAALFYSL, the dissociation constant Kd in [9] (source organism: Bacillus anthracis str. A0488) worked out at 0.0018 µM.

Consider GTIGAVSLDF, for which, in assay [4] (setting [22]), the Kd worked out at 0.454 µM. RMGAAVTPY: the results for the Kd in assay [10] (setting [26]) and in assay [11] (setting [26]) were 0.254 µM and 0.0988 µM, respectively. Consider QLAKAIITP, for which the IC50 in assay [5] (setting [27]) is at least 96.3 µM. As to RMMASSMSQ, in assay [10] (source organism: Bacillus cereus), the dissociation constant Kd was at least 20 µM.

Consider STPQGLVKRF, for which the Kd in [4] (setting [20]) is 0.453 µM. TVIALFLAH: in assay [4] (setting [25]), the Kd is 12.2 µM.

In [9] (setting [27]), EIVNLLDNKV registered a Kd of at least 20 µM. As to GVATDVPSA, the IC50 in assay [5] (setting [21]) stood at 1.46 µM. The sequence MDYHKILTA yielded an IC50 in assay [5] (setting [21]) of at least 114 µM.

Sequence GAAGARGAL gave an equilibrium dissociation constant (Kd) in assay [12] (source organism: Hepacivirus hominis) of 0.0128 µM.

KVIQPRVEK: the Kd in assay [13] worked out at 0.427 µM; in assay [14] it was 7.34 µM; in assay [15] it was 0.89 µM. For VEGLSGATW, the dissociation constant Kd in assay [6] (setting [25]) came out at 0.03 µM; in assay [7] (setting [25]), 0.0891 µM. EEFWKLVDR: the Kd in assay [7] (source organism: Dengue virus 3 Sri Lanka/1266/2000) stood at 3.11 µM.

Regarding GQFGSGWTW, the Kd came to 0.138 µM in assay [11] (source organism: Rickettsia prowazekii), 2.87 µM in assay [16] and 0.168 µM in [17]. Take IESSKNQTW: the values for the Kd in assay [6] (setting [20]) and in assay [7] (setting [20]) were 0.135 µM and 0.158 µM, respectively. In the case of SMVNGVVKL, in assay [2] (source organism: Dengue virus 1 Singapore/S275/1990), the Kd is at least 20 µM. In turn, DPNPQEVVL gave a Kd in assay [12] (source organism: Human immunodeficiency virus 1) of at least 30.7 µM. In the case of EMFGGTPAV, in [1] (source organism: Mycobacterium tuberculosis), the Kd amounted to 0.0021 µM. In the case of SEMIIPKNF, the dissociation constant (Kd) was 0.0107 µM in [6] (setting [22]) and 0.0129 µM in assay [7] (setting [22]). Take GLQADAPHL: the dissociation constant (Kd) was 0.104 µM in assay [1] (setting [28]) and at least 20 µM in [2] (setting [28]). Sequence ASLIPDATY gave an equilibrium dissociation constant (Kd) in assay [18] of 17.1 µM. As to FQWSDDPFI, the Kd in assay [1] (setting [29]) was 0.0073 µM; in assay [2] (setting [29]), at least 20 µM. For ELIDGISLG, in [4] (source organism: Dengue virus 4 Dominica/814669/1981), the dissociation constant Kd turned out to be 0.472 µM. SSLPPLESD had an IC50 in [5] (setting [21]) of at least 170 µM. The sequence NLEHGLFPQ displayed a concentration for half-maximal inhibition (IC50) in assay [5] (setting [21]) of at least 304 µM. EEEEAGVLW: the dissociation constant (Kd) worked out at 0.0847 µM in [6] (setting [22]) and 0.162 µM in [7] (setting [22]). Consider ELITEQMAPH, for which the Kd in assay [4] (setting [20]) worked out at 6.06 µM. On to WLKGNISPV, for which the equilibrium dissociation constant (Kd) was found to be 0.0205 µM in assay [1] (setting [30]), 0.536 µM in [2] (setting [30]), 3.11 µM in [12] (setting [30]) and 0.795 µM in assay [11] (setting [30]). The sequence DIRTLLPILL registered a Kd in assay [9] (source organism: Variola virus) of 0.737 µM.
